Test results as given in patent publication US20210238289A1 (Biogen, published 2021).
Residue numbers refer to the chain shown, from its start. Names may count otherwise.

Legend:
CD16 (FcγRIIIa V158) [1] = target: T1, CD16 (FcγRIIIa V158) (UniProt P08637 17-208); test: solution competition SPR (Biacore)
T1 construct: V158 allotype as printed

CD16 (FcγRIIIa V158) [2] = target: T1, CD16 (FcγRIIIa V158); test: solution competition SPR (Biacore); remark: listed apart in the source
Protocol: (§1) Binding to Fcγ receptors was analyzed using solution affinity surface plasmon resonance (ref Day E S, Cachero T G, Qian F, Sun Y, Wen D, Pelletier M, Hsu Y M, Whitty A. Selectivity of BAFF/BLyS and APRIL for binding to the TNF family receptors BAFFR/BR3 and BCMA. Biochemistry. 2005 Feb. 15; 44(6):1919-31.) The method utilizes conditions of so-called “mass-transport-limited” binding, in which the initial rate of ligand binding (protein binding to the senor chip) is proportional to the concentration of ligand in solution (ref BIApplications Handbook (1994) Chapter 6: Concentration measurement, pp 6-1-6-10, Pharmacia Biosensor AB). Under these conditions, binding of the soluble analyte (protein flowing over chip surface) to the immobilized protein on the chip is fast compared to the diffusion of the analyte into the dextran matrix on the chip surface. Therefore, the diffusion properties of the analyte and the concentration of analyte in solution flowing over the chip surface determine the rate at which analyte binds to the chip. In this experiment, the concentration of free Fc receptor in solution is determined by the initial rate of binding to a CM5 Biacore chip containing an immobilized IgG1 MAb. Into these Fc receptor solutions were titrated the stability engineered constructs (see Table 10.1 below). […] Initial binding rates were obtained from raw sensorgram data (FIG. 14). […] The results are shown in Table 10.1 and reported as the average of two titrations.

CD64 (FcγRI) [3] = target: T2, CD64 (FcγRI) (UniProt P12314 16-288, limits assumed); test: solution competition SPR (Biacore); construct titrated into receptor, free receptor read on immobilized IgG1 MAb
Protocol: as §1

CD16 (FcγRIIIa V158) [4] = target: T1, CD16 (FcγRIIIa V158); test: as above
Protocol: as §1

CD16 (FcγRIIIa V158) [5] = target: T1, CD16 (FcγRIIIa V158); test: solution competition SPR (Biacore); text value differing from the table (100.2)
Protocol: Binding to Fcγ receptors was analyzed using solution affinity surface plasmon resonance (ref Day E S, Cachero T G, Qian F, Sun Y, Wen D, Pelletier M, Hsu Y M, Whitty A. Selectivity of BAFF/BLyS and APRIL for binding to the TNF family receptors BAFFR/BR3 and BCMA. Biochemistry. 2005 Feb. 15; 44(6):1919-31.) The method utilizes conditions of so-called “mass-transport-limited” binding, in which the initial rate of ligand binding (protein binding to the senor chip) is proportional to the concentration of ligand in solution (ref BIApplications Handbook (1994) Chapter 6: Concentration measurement, pp 6-1-6-10, Pharmacia Biosensor AB). Under these conditions, binding of the soluble analyte (protein flowing over chip surface) to the immobilized protein on the chip is fast compared to the diffusion of the analyte into the dextran matrix on the chip surface. Therefore, the diffusion properties of the analyte and the concentration of analyte in solution flowing over the chip surface determine the rate at which analyte binds to the chip. In this experiment, the concentration of free Fc receptor in solution is determined by the initial rate of binding to a CM5 Biacore chip containing an immobilized IgG1 MAb. Into these Fc receptor solutions were titrated the stability engineered constructs (see Table 10.1 below). […] Initial binding rates were obtained from raw sensorgram data (FIG. 14). […]

human C1q = target: T3, human C1q (human, UniProt P02745 23-245; P02746 28-253; P02747 29-245); test: C1q ELISA
T3 construct: Bought protein; also called complement factor C1q; Sigma human C1q (C0660)
Protocol: The C1q binding assay was be performed by coating 96 well Maxisorb ELISA plates (Nalge-Nunc Rochester, N.Y., USA) with 50 μl recombinant soluble human CD40 ligand at 10 ug/ml overnight at 4° C. in PBS. The wells were aspirated and washed three times with wash buffer (PBS, 0.05% Tween 20) and blocked for 1 hour with 200 µl/well of block/diluent buffer (0.1 M Na2HP04, pH 7.0, 1 M NaCl, 0.05% Tween 20, 1% gelatin). The antibodies were diluted in block/diluent buffer with 3-fold dilutions and incubated for 2 hours at room temperature.
After aspirating and washing as above, 50 pll/well of sheep anti C1q (Serotec AHP033), diluted 3, 560-fold in block/diluent buffer, were added. After incubation for 1 h at room temperature, the wells were aspirated and washed as above. 50 pll/well of donkey anti-sheep IgG HRP conjugate (Jackson ImmunoResearch 713-035-147) diluted to 1:10,000 in block/diluent were then added, and the wells incubated for 1 h at room temperature.
After aspirating and washing as above, 100 all TMB substrate (420 plM TMB, 0.004% H2O2 in 0.1 M sodium acetate/citric acid buffer, pH 4.9) were added and incubated for 2 min before the reaction was stopped with 100 ul 2 N sulfuric acid. The absorbance was read at 450 nm with a Softmax PRO instrument, and Softmax software was used to determine the relative binding affinity (C value) with a 4-parameter fit.

CD64 (FcγRI) [6] = target: T2, CD64 (FcγRI); test: solution competition SPR (Biacore)
Protocol: as §1

[7] = target: T4, cynomolgus monkey alpha-4 integrin (cynomolgus monkey, UniProt A0A2K5U6S2 34-970); test: in vitro binding affinity comparison; method not described
T4 construct: also called cynomolgus alpha-4 integrin

human alpha-4 integrin = target: T5, human alpha-4 integrin (human, UniProt P13612 34-970, limits assumed); test: as above
T5 construct: also called the human receptor

[8] = target: T6, VLA receptors (alpha-4 integrin) of cynomolgus monkeys in vivo (cynomolgus monkey, UniProt A0A2K5U6S2 34-1032); test: model-estimated (direct Emax PKPD model) EC50 for the formation of drug-bound VLA in cynomolgus monkeys
T6 construct: whole, on cells; Receptor occupancy measured in dosed animals; also called free VLA receptors
Description: HP1/2 human PKs were projected through allometric scaling on monkey PK parameters (k10, k12, k21 and V1). See Singh, A. P et al. The AAPS Journal, 17(2), 389-399. […] The inherent monkey parameters were directly applied to human including Km, V max and the PD parameters (Eₘ, EC₅₀, E₀ and V). […] See Muralidharan, K. K. et al. Journal of Clinical Pharmacology, 57(8), 1017-1030. The data were integrated using an empirical scaling approach combining the EC₅₀ parameter values obtained in monkeys (m) and humans (h), after adjusting for potency (Kd) differences across species: […]

B1: EAG2476 (YC406-Fc; agly IgG4-Fc T299K, T307P, L309K, D399S) (other)
Fc: ESKYGPPCPPCPAPEFLGGPSVFLFPPKPKDTLMISRTPEVTCVVVDVSQEDPEVQFNWYVDGVEVHNAKTKPREEQFNSKYRVVSVLPVKHQDWLNGKEYKCKVSNKGLPSSIEKTISKAKGQPREPQVYTLPPSQEEMTKNQVSLTCLVKGFYPSDIAVEWESNGQPENNYKTTPPVLSSDGSFFLYSRLTVDKSRWQEGNVFSCSVMHEALHNHYTQKSLSLSLG
modifications: Aglycosylated through T299K. The Fc is a homodimer; one chain is given.
- IC50 (CD16 (FcγRIIIa V158) [1]): 1320 µM

B2: CN578 (hu5c8 IgG1 T299K, aglycosylated) (antibody)
heavy: not shown
light: DIVLTQSPATLSVSPGERATISCRASQRVSSSTYSYMHWYQQKPGQPPKLLIKYASNLESGVPARFSGSGSGTDFTLTISSVEPEDFATYYCQHSWEIPPTFGGGTKLEIKRTVAAPSVFIFPPSDEQLKSGTASVVCLLNNFYPREAKVQWKVDNALQSGNSQESVTEQDSKDSTYSLSSTLTLSKADYEKHKVYACEVTHQGLSSPVTKSFNRGEC
modifications: N-terminal Q largely converted to pyroglutamic acid (mass spectrometry)
notes: Mass spectrometry assigns HC 1-447, which fits VH (118) + IgG1 CH1 (98) + Fc moiety (231); also called aglycosylated IgG1 A299K
- IC50 (CD16 (FcγRIIIa V158) [2]): 1320 µM
- IC50 (CD64 (FcγRI) [3]): 1420 µM

B3: IgG1 control antibody (hu5c8 IgG1, glycosylated) (antibody)
heavy: not shown
light: B2 light
notes: also called IgG1 wild type
- IC50 (CD64 (FcγRI) [3]): 9.64 µM
- IC50 (CD16 (FcγRIIIa V158) [4]): 100 µM
- IC50 (CD16 (FcγRIIIa V158) [5]): 105 µM

B4: EC300 (hu5c8 IgG4.P S228P, T307P, glycosylated) (antibody)
heavy: not shown
light: B2 light
notes: copies: 2 + 2
- IC50 (CD64 (FcγRI) [3]): 11.2 µM
- IC50 (CD16 (FcγRIIIa V158) [4]): 564 µM

B5: EC326 (hu5c8 IgG4.P S228P, T307P, L309K, D399S, glycosylated) (antibody)
heavy: QVQLVQSGAEVVKPGASVKLSCKASGYIFTSYYMYWVKQAPGQGLEWIGEINPSNGDTNFNEKFKSKATLTVDKSASTAYMELSSLRSEDTAVYYCTRSDGRNDMDSWGQGTLVTVSSASTKGPSVFPLAPCSRSTSESTAALGCLVKDYFPEPVTVSWNSGALTSGVHTFPAVLQSSGLYSLSSVVTVPSSSLGTKTYTCNVDHKPSNTKVDKRVESKYGPPCPPCPAPEFLGGPSVFLFPPKPKDTLMISRTPEVTCVVVDVSQEDPEVQFNWYVDGVEVHNAKTKPREEQFNSTYRVVSVLPVKHQDWLNGKEYKCKVSNKGLPSSIEKTISKAKGQPREPQVYTLPPSQEEMTKNQVSLTCLVKGFYPSDIAVEWESNGQPENNYKTTPPVLSSDGSFFLYSRLTVDKSRWQEGNVFSCSVMHEALHNHYTQKSLSLSLG
light: B2 light
modifications: N-terminal Q largely converted to pyroglutamic acid; N-linked G0F/G1F/G2F glycans (mass spectrometry)
notes: copies: 2 + 2
- IC50 (CD64 (FcγRI) [3]): 7.56 µM
- IC50 (CD16 (FcγRIIIa V158) [4]): 380 µM

B6: EAG2296 (hu5c8 S228P/T299A, IgG4 CH2/IgG1 CH3 chimera, aglycosylated) (antibody)
heavy: B5 heavy with T297A, P305T, K307L, Q353R, E354D, M356L, S397D, R407K, E417Q, L443P
light: B2 light
notes: also called pEAG2296; copies: 2 + 2
- binding result (human C1q): no binding
- IC50 (CD16 (FcγRIIIa V158) [2]): 1320 µM

B7: EAG2287 (hu5c8 S228P/T299K, IgG4 CH2/IgG1 CH3 chimera, aglycosylated) (antibody)
heavy: B5 heavy with T297K, P305T, K307L, Q353R, E354D, M356L, S397D, R407K, E417Q, L443P
light: B2 light
notes: also called pEAG2287; copies: 2 + 2
- binding result (human C1q): no binding
- IC50 (CD64 (FcγRI) [6]): 4040 µM
- binding result (CD16 (FcγRIIIa V158) [2]): no binding

B8: HP1/2 H1/L3 huIgG4P agly (N297Q, EU Numbering)/IgG1 chimera (antibody, V domains shown)
VH: EVQLVQSGAEVKKPGATVKISCKASGFNIKDTYMHWVQQAPGKGLEWMGRIDPASGDTKYDPKFQVRVTITADTSTDTAYMELSSLRSEDTAVYYCADGMWVSTGYALDFWGQGTLVTVSS
VL: SIVMTQSPDSLAVSLGERATINCKASQSVTNDVAWYQQKPGQPPKLLIYYASNRYTGVPDRFSGSGYGTDFTFTISSLQAEDVATYFCQQDYSSPYTFGQGTKVEIKR
notes: also called BIIB107; HP1/2 G4P agly/G1
- fold weaker affinity than to the human receptor [7]: ~5 fold
- fold higher affinity than natalizumab Fab fragment (human alpha-4 integrin): > 19 fold
- fold higher affinity than natalizumab intact (human alpha-4 integrin): ~5 fold
- EC50 [8]: 4.73 ng/mL

B9: HP1/2 Fab fragment (Fab, V domains shown)
VH: B8 VH
VL: B8 VL
- fold weaker affinity than to the human receptor [7]: ~6 fold
- fold higher affinity than natalizumab Fab fragment (human alpha-4 integrin): ~6 fold
